Measured values taken from patent US20100104554.

How the values were obtained:
[1] = molecular target: Fc-control protein
[2] = molecular target: T1, recombinant human cathepsin S propeptide (residues 17-113) with N-terminal hexahistidine tag, expressed from pQE30
T1 chain: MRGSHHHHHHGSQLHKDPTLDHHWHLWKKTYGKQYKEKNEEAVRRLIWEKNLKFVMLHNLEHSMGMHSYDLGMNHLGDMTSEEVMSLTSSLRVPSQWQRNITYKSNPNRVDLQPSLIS

B1: human cathepsin S (Calbiochem) (protein)
chain: LPDSVDWREKGCVTEVKYQGSCGACWAFSAVGALEAQLKLKTGKLVSLSAQNLVDCSTEKYGNKGCNGGFMTTAFQYIIDNKGIDSDASYPYKAMDLKCQYDSKYRAATCSKYTELPYGREDVLKEAVANKGPVSVGVDARHPSFFLYRSGVYYEPSCTQNVNHGVLVVGYGDLNGKEYWLVKNSWGHNFGEEGYIRMARNKGNHCGIASFPSYPEI
hydrolysis of Z-VVR-AMC by CatS (fluorometric assay) [1]: The Fc-control protein (200 nM) had no discernable effects on CatS activity
elastinolytic turnover of Elastin-DQ by CatS over a 60 minute incubation [2]: the inventors were able to demonstrate inhibition of this activity
hydrolysis of Cbz-Val-Val-Arg-AMC by CatS (fluorometric assay), rCatSPP 0 nM to 500 nM [2]: the dose-dependent inhibition of CatS activity was observed
